Legend:
[1] = DMP1 immunofluorescence intensity in brain; conditions: glycan lost; control: wild type mice
[2] = RNA sequencing of NSCs; conditions: glycan lost; control: wild type NSCs
[3] = RNA sequencing of primary astrocyte cultures; conditions: glycan lost; control: wild type astrocytes
[4] = transmission electron microscopy, retrosplenial granular cortex; conditions: glycan lost; control: wild type mice
[5] = qPCR, Western blot, immunofluorescence; conditions: glycan lost; control: wild type
[6] = intraperitoneal Evans blue, leakage area in brain sections; conditions: glycan lost; control: wild type mice
[7] = spontaneous differentiation after EGF/bFGF withdrawal; conditions: glycan lost; control: wild type NSCs
[8] = immunofluorescence, retrosplenial granular cortex; conditions: glycan lost; control: wild type mice
[9] = cultured NSCs in vitro; conditions: glycan lost; control: wild type NSCs
[10] = GFAP/lectin immunofluorescence in cortex; conditions: glycan lost; control: wild type mice
[11] = cultured NSCs; conditions: glycan lost; control: wild type NSCs

B1: Dentin matrix protein 1 (DMP1): S89G-DMP1 (protein)
parent chain: MKTVILLVFLWGLSCALPVARYHNTESESSEERTGDLAGSPPPPTNSESSEESQASPEGQANSDHTDSSESGEELGYDRGQYRPAGGLSKSTGTGADKEDDEDDSGDDTFGDEDNDLGPEEGQWGGPSKLDSDEDSTDTTQSSEDSTSQENSAQDTPSDSKDHDSEDEADSRPEAGDSTQDSESEEQRVGGGSEGESSHGDGSEFDDEGMQSDDPESTRSDRGHARMSSAGIRSEESKGDHEPTSTQDSDDSQSVEFSSRKSFRRSHVSEEDYRGELTDSNSRETQSDSTEDTASKEESRSESQEDTAESQSQEDSPEGQDPSSESSEEAGEPSQESSSESQEGVTSESRGDNPDNTSQAGDQEDSESSEEDSLNTFSSSESQSTEEQADSESNESLSLSEESQESAQDGDSSSQEGLQSQSASTESRSQESQSEQDSRSEEDSDSQDSSRSKEESNSTGSASSSEEDIRPKNMEADSRKLIVDAYHNKPIGDQDDNDCQDGY
expression_or_secretion [1]: no change
other: neural stem cell transcriptome [2]: changes
other: astrocyte transcriptome [3]: changes
other: astrocyte cell-cell adhesion [4]: decreases
other: AQP4 expression in astrocytes and brain [5]: decreases
other: blood-brain barrier integrity [6]: decreases
other: neural stem cell differentiation [7]: no change
other: laminin and ZO1 expression at vasculature [8]: decreases
other: neural stem cell proliferation [9]: increases
other: astrocyte end feet coverage of blood vessels [10]: decreases
other: neural stem cell apoptosis [11]: no change
